Experimental data reported in the array DNA melting data of Ke et al..

Test: melting temperature; melt of duplexes
Details: sodium 0.0675 M; strand 1 µM

Substance	Tm [°C]
CGACGTGCAATATGTGCTG+CAGCACATTCTGCACGTCG (((((((((..((((((((+))))))))..)))))))))	50.7
CGACGTGCAATATGTGCTG+CAGCACATTGTGCACGTCG (((((((((..((((((((+))))))))..)))))))))	49.1
CGACGTGCAATATGTGCTG+CAGCACATTTAGCACGTCG ((((((((.(.((((((((+)))))))).).))))))))	50.8
CGACGTGCACAATGTGCTG+CAGCACATAGAGCACGTCG ((((((((.(.((((((((+)))))))).).))))))))	48.4
CGACGTGCACAATGTGCTG+CAGCACATAGGGCACGTCG ((((((((.(.((((((((+)))))))).).))))))))	53
CGACGTGCACAATGTGCTG+CAGCACATCAAGCACGTCG ((((((((...((((((((+))))))))...))))))))	46.2
CGACGTGCACAATGTGCTG+CAGCACATCCTGCACGTCG (((((((((..((((((((+))))))))..)))))))))	47.1
CGACGTGCACAATGTGCTG+CAGCACATCGCGCACGTCG ((((((((.(.((((((((+)))))))).).))))))))	48.5
CGACGTGCACAATGTGCTG+CAGCACATCTAGCACGTCG ((((((((...((((((((+))))))))...))))))))	45.9
CGACGTGCACAATGTGCTG+CAGCACATGCGGCACGTCG ((((((((...((((((((+))))))))...))))))))	46.6
CGACGTGCACAATGTGCTG+CAGCACATGTAGCACGTCG ((((((((...((((((((+))))))))...))))))))	50.7
CGACGTGCACAATGTGCTG+CAGCACATTAAGCACGTCG ((((((((..(((((((((+)))))))))..))))))))	49
CGACGTGCACAATGTGCTG+CAGCACATTATGCACGTCG (((((((((.(((((((((+))))))))).)))))))))	52.8
CGACGTGCACAATGTGCTG+CAGCACATTCGGCACGTCG ((((((((..(((((((((+)))))))))..))))))))	49.7
CGACGTGCACAATGTGCTG+CAGCACATTCTGCACGTCG (((((((((.(((((((((+))))))))).)))))))))	51.7
CGACGTGCACAATGTGCTG+CAGCACATTGAGCACGTCG ((((((((.((((((((((+)))))))))).))))))))	56.9
CGACGTGCACCATGTGCTG+CAGCACATAAAGCACGTCG ((((((((...((((((((+))))))))...))))))))	45
CGACGTGCACCATGTGCTG+CAGCACATAGCGCACGTCG ((((((((.(.((((((((+)))))))).).))))))))	46.1
CGACGTGCACCATGTGCTG+CAGCACATAGGGCACGTCG ((((((((.(.((((((((+)))))))).).))))))))	51.5
CGACGTGCACCATGTGCTG+CAGCACATCAGGCACGTCG ((((((((...((((((((+))))))))...))))))))	42.9
CGACGTGCACCATGTGCTG+CAGCACATCATGCACGTCG (((((((((..((((((((+))))))))..)))))))))	45.6
CGACGTGCACCATGTGCTG+CAGCACATCCTGCACGTCG (((((((((..((((((((+))))))))..)))))))))	44.7
CGACGTGCACCATGTGCTG+CAGCACATCGAGCACGTCG ((((((((.(.((((((((+)))))))).).))))))))	45.7
CGACGTGCACCATGTGCTG+CAGCACATCGGGCACGTCG ((((((((.(.((((((((+)))))))).).))))))))	49.4
CGACGTGCACCATGTGCTG+CAGCACATCTCGCACGTCG ((((((((...((((((((+))))))))...))))))))	41.8
CGACGTGCACCATGTGCTG+CAGCACATCTTGCACGTCG (((((((((..((((((((+))))))))..)))))))))	45.7
CGACGTGCACCATGTGCTG+CAGCACATGAGGCACGTCG ((((((((..(((((((((+)))))))))..))))))))	53.9
CGACGTGCACCATGTGCTG+CAGCACATGATGCACGTCG (((((((((.(((((((((+))))))))).)))))))))	56.5
